In patent publication US6716574B2, “Osp-C derived peptide fragments” (Dako A/S, priority 1996, dated 2004):

Columns and labels:
Assay type in all cases: binding, human
[1] = test system: IgG antibodies in Lyme borreliosis sera; experiment: IgG antibodies to the C-terminal decapeptide in Lyme borreliosis sera
[2] = test system: IgM in serum from a patient with established neuroborreliosis; experiment: Western blot with the decapeptide as serodiagnostic test antigen; details: 10 ug peptide on nitrocellulose, NB serum 1:100, preliminary experiments
Protocol: After three further washes in TRIS buffered saline with Tween, antibody reactive peptide was detected with alkaline phosphatase-coupled rabbit anti-human immune globulin M (DAKO, Denmark; cat. no. 337). The conjugate was diluted 1:1000 in TRIS buffered saline with 1% BSA and the NC membrane was incubated with colour substrate (BCIP and NBT; 1:500) for 10 minutes.

[3] = test system: IgG reactive with OspC in patient sera; experiment: IgG rOspC ELISA combined with IgG flagellum ELISA
[4] = test system: IgM antibodies to OspC in sera from patients; experiment: Indirect ELISA for IgM antibodies to full-length and truncated recombinant OspC (rOspC ELISA); details: for frequency (%) of positive sera, rOspCfl ELISA: IgM; for diagnostic sensitivity for IgM: set of preliminary tests
Protocol: Indirect ELISA for IgM Antibodies to Full-length and Truncated Recombinant OspC (rOspC ELISA)
Flat-bottom microdilution plates (Maxisorb; Nunc, Roskilde, Denmark) were coated with 100 μl of rOspC diluted in 0.05 M bicarbonate pH 9.6 for 1 hour at 20° C. on a rocker platform and thereafter overnight at 4° C. The optimum coating concentration was defined as the antigen dilution resulting in the highest ratio of the optical density (OD) between a positive and a negative control serum (P/N ratio). The plates were washed four times à one minute with PBS containing 0.5 M NaCL, and 0.1% (vol/vol) Tween 20 (pH 7.2) and unspecific protein binding was blocked with 100 μl 3% (wt/vol) milk powder in PBS for 1 hour. The plates were washed four times à one minute with PBS containing 0.5 M NaCL, and 0.1% (vol/vol) Tween 20 (pH 7.2). 100 μl of serum diluted 1:200 in PBS containing 0.1% (vol/vol) Tween 20, 0.02% NaN3 and 1% (wt/vol) milk powder was added to the wells and incubated for 2 h at 20° C. The plates were washed four times à one minute with PBS containing 0.5 M NaCL, and 0.1% (vol/vol) Tween 20 (pH 7.2) and 100 μl peroxidase conjugated rabbit anti-human immunoglobulin M (IgM) (Dakopats, Copenhagen, Denmark, code P-215) diluted 1:1000 in PBS pH 7.4 with 0.05% (vol/vol) Tween 20 and 1% (wt/vol) milk powder. After the incubation for 1 h at 20° C. the plates were washed four times à one minute with PBS containing 0.5 M NaCL, and 0.1% (vol/vol) Tween 20 (pH 7.2) and 200 μl of the substrate o-phenylenediamine (0.41 mg/ml; Sigma) in citrate buffer (pH 5) with 0.04% (vol/vol) H2O2) was added to each well. After 15 minutes protected from light, the enzymatic reaction was stopped by the addition of 50 μl of 3M H2SO4. The optical density (OD) at 492 nm was read spectrophotometrically (Immuno Reader, Easy reader EAR 400 AC—SLT Labinstruments, AUSTRIA). Samples were tested in duplicate and retested, if the two OD values differed more than 10% from the mean. To eliminate plate-to-plate and day-to-day variations, a reference serum pool based on seven western blot positive sera were included on every plate for construction of a standard dilution curve with a two fold dilution ranging from 1:200 to 1:6400. The OD value of every sample was adjusted to this standard curve. Positive and negative control sera were included on every plate. The positive control sera were diluted 1:200, 1:400 and 1:800 on every plate to check for parallelism between the standard reference curve and the dilution curve of the positive control sera.
The diagnostic cutoff OD was adjusted to be 98% specific for an IgM assay on the basis of serum samples from 100 healthy danish blood donors, and was 0.230 for the IgM assay.
In a preliminary setup, rOspCt was used in the above-described rOspC ELISA. Sera from 47 patients with EM, 50 with NB, 30 with ACA and 29 with syphilis were tested against rOspCt.
The capability of an immunological agent according to the present invention to react with sera from patients in various stages of Lyme borreliosis was evaluated against that of recombinant OspC derived from B. garinii and against conventional flagellum ELISAs (performed as described in Hansen K. et al. (1991) and Hansen K. et al. (1988)). These flagellum assays (testing for IgM and IgG antibodies to native B. burgdorferi flagellum) are commercially available, a μ-capture ELISA (DAKO, Denmark code K006), and an indirect IgG ELISA (DAKO, Denmark code K416). Both assays use flagella purified from strain DK1 belonging to the genospecies of B. afzelii. The ELISAs were performed according to the instructions of the manufacturer, and the results were expressed as optical density (OD) values. In both assays the diagnostic cut-off level was adjusted to a specificity of 98% based on the examination of 100 blood donors.

Question: Which “Lyme borreliosis sera comprising IgG antibodies to the peptide” value [1] does the source give for “NH2-Pro-Val-Val-Ala-Glu-Ser-Pro-Lys-Lys-Pro-COOH (H-PVVAESPKKP-OH; listed as Borrelia garinii) [SEQ ID NO: 1, C-terminal decapeptide of B. burgdorferi sensu lato OspC]” here?
Answer: The value was “only few”.

Question: And the “usability as serodiagnostic test antigen in western blot” value [2]?
Answer: The value was “can be used as a serodiagnostic test antigen”.

B1: rOspCfl: full-length recombinant OspC from Borrelia garinii strain DK6 (SEQ ID NO: 3), six-His fusion protein (protein, listed as Borrelia garinii)
chain: MKKNTLSAILMTLFLFISCNNSGGDSASTNPDESAKGPNLTVISKKITDSNAFLLAVKEVEALLSSIDELSKAIGKKIKNDGTLDNEANRNESLIAGAYEISKLITQKLSVLNSEELKEKIKEAKDCSEKFTTKLKDSHAELGIQSVQDDNAKKAILKTHGTKDKGAKELEELFKSLESLSKAAQAALTNSVKELTNPVVAESPKKP
modifications: six-His tag
Question: For B1, which “improvement on adding IgG rOspC ELISA results to IgG flagellum ELISA results” value [3] is on record?
Answer: Its value is “no significant improvement”.

Question: And the “frequency (%) of positive sera, rOspCfl ELISA” value (shortened to “frequency (%) of positive sera”) ([4]; EM sera (n = 80), B. garinii rOspCfl, cutoff OD 0.230)?
Answer: Its value is “n = 45 (43.8%)”.

Question: What about the “rOspCfl IgM negative and Flagellum IgM negative” value ([4]; EM, n = 80) of the same molecule?
Answer: Its value is “n = 38 (47.50%)”.

Question: And the “rOspCfl IgM negative and Flagellum IgM positive” value ([4]; EM, n = 80)?
Answer: Its value is “n = 7 (8.75%)”.

Question: What about the “rOspCfl IgM positive and Flagellum IgM negative” value ([4]; EM, n = 80) of the same molecule?
Answer: The value was “n = 12 (15.00%)”.

Question: And the “rOspCfl IgM positive and Flagellum IgM positive” value ([4]; EM, n = 80)?
Answer: The value was “n = 23 (28.75%)”.

Question: And the “rOspCfl IgM negative” value ([4]; EM, n = 80, all sera)?
Answer: The value was “n = 45 (56.25%)”.

Question: And the “rOspCfl IgM positive” value ([4]; EM, n = 80, all sera)?
Answer: The value was “n = 35 (43.75%)”.

Question: What about the “frequency (%) of positive sera” value ([4]; Early Lyme borreliosis (EM and NB) sera (n = 181)) of the same molecule?
Answer: The value was “n = 94 (46.4%)”.

Question: What about the “frequency (%) of positive sera” value ([4]; NB sera (n = 101), B. garinii rOspCfl) of the same molecule?
Answer: Its value is “n = 49 (48.5%)”.

Question: And the “rOspCfl IgM negative and Flagellum IgM negative” value ([4]; NB, n = 101)?
Answer: Its value is “n = 25 (24.75%)”.

Question: What about the “rOspCfl IgM negative and Flagellum IgM positive” value ([4]; NB, n = 101) of the same molecule?
Answer: The value was “n = 26 (25.74%)”.

Question: What about the “rOspCfl IgM positive and Flagellum IgM negative” value ([4]; NB, n = 101) of the same molecule?
Answer: The value was “n = 12 (11.88%)”.

Question: What about the “rOspCfl IgM positive and Flagellum IgM positive” value ([4]; NB, n = 101) of the same molecule?
Answer: Its value is “n = 37 (36.63%)”.

Question: What about the “rOspCfl IgM negative” value ([4]; NB, n = 101, all sera) of the same molecule?
Answer: Its value is “n = 52 (51.5%)”.

Question: And the “rOspCfl IgM positive” value ([4]; NB, n = 101, all sera)?
Answer: The value was “n = 49 (48.5%)”.

Question: What about the “increase of overall diagnostic sensitivity for IgM when adding rOspCfl ELISA results to flagellum ELISA results” value ([4]; first stage of Lyme borreliosis (EM)) of the same molecule?
Answer: The value was 15%.

Question: What about the “diagnostic sensitivity for IgM” value ([4]; first stage of Lyme borreliosis) of the same molecule?
Answer: The value was 44%.

Question: What about the “increase of overall diagnostic sensitivity for IgM when adding rOspCfl ELISA results to flagellum ELISA results” value ([4]; second stage of Lyme borreliosis (NB)) of the same molecule?
Answer: The value was 12%.

Question: What about the “diagnostic sensitivity for IgM” value ([4]; second stage of Lyme borreliosis) of the same molecule?
Answer: Its value is 48%.
